Assay results as given in patent US20240254246A1 (PROMETHEUS BIOSCIENCES, published 2024).
Numbering of substitutions follows the chain as printed.

B1: anti-CD30L antibody clone 1 (antibody, V domains shown)
VH: QVQLQESGPGLVKPSETLSLTCTVSGGSISGYYWSWIRQPPVKGLEWIGYIFYSGYTKYNPSLKSRVTISVDTSKNQFSLKLSSVTAADTAVYYCARDRWDFDYWGQGALVTVSS
VL: AIQMTQSPSYLSASVGDRVTIACRASQGIRNNLGWYQQKPGKAPKLLIYAESSLQSGVPSRFSGSGSGTDFTLTISSLQPEDFATYYCLQDFNYPYTFGQGTKLEIK
notes: also called clone 1 parental
B2: anti-CD30L antibody clone 2 (antibody, V domains shown)
VH: EVQLVESGGGLVQPGRSLRLSCAASGFNFDDYAMHWVRQAPGKGLEWVSGISWRSGNIGYAGSVKGRFTISRDNAKNSLYLQMNSLRPEDSALYYCAKDKGIGFNWNYEGFDYWGQGTLVTVSS
VL: DIQMTQSPSSLSASVGDRVTITCRASQGISNHLAWFQQKPGKAPKSLIYAASSLQSGVPSKFSGSGSGTDFTLTISSLQPEDFATYYCQQYVTYPLTFGGGTKVEIK
notes: also called clone 2 parental
B3: anti-CD30L antibody clone 63 (antibody, V domains shown)
VH: EVQLVESGGGLVQPGGSLRLSCAASGFMFSSYSMNWVRQAPGKGLEWVSYISSSSSTIYDADSVKGRFTISRDDAKNSLYLQMNSLRDEDTAVYYCTREAYPGYYYNYMDVWGKGTTVTVSS
VL: DIQMTQSPSSLSASVGDRVTITCRASQSISSRLAWYQQKPGKAPNLLIYKASNLESGVPSRFSGSGSGTEFTLTISSLQPDDFATYYCQQYNSYSRTFGQGTKVEIK
notes: purified recombinant IgG (held by anti-human biosensors); mouse strain #1
B4: anti-CD30L antibody clone 64 (antibody, V domains shown)
VH: EVQLVESGGGLVQPGGSLRLSCAASGFTFSNYAMTWVRQAPGKGLEWVSAISGFGGSTYYADSVKGRFTISRDNSKNTLYLQMNSLRAEDTAVYYCAKDHDYYAFDYWGQGTLVTVSS
VL: not shown
notes: as for B3
B5: anti-CD30L antibody clone 65 (antibody, V domains shown)
VH: B4 VH with R19K, F54Y, D62A, Y80F, T115P
VL: not shown
notes: as for B3
B6: anti-CD30L clone 59 (antibody, V domains shown)
VH: QVQLVESGGGVVQPGRSLRLSCAASGFTFSIYGMHWVRQAPGKGLEWVAVIWYDGSNKYYVDSVKGRFTISRDNSKNSLYLQMNSLRAEDTAVYYCAREGNLFDYWGQGTLVTVSS
VL: DIQMTQSPSTLSASVGDRVTITCRASQSISSWLAWYQQKPGKAPKLLIYKASSLESGVPSRFSGSGSGTEFTLTISSLKPDDFATYYCQQYKSYYTFGQGTKLEIK
B7: anti-CD30L clone 60 (antibody, V domains shown)
VH: QVHLVESGGGVVQPGRSLRLSCAASGFAFNIYGMHWVRQAPGKGLEWVAVISYDGSNKVYADSVKGRFSISRDNSKNTLYLQMNSLRAEDTAVYYCAKSGGITMVRGVFDYWGQGTLVTVSS
VL: DIQMTQSPSSLPASVGDRVTITCRASQGIRNDLGWYQQKPGKAPKRLIHAASSLHSGVPSRFSGSGSGTEFTLTISSLQPEDFATYYCLQHNRYPITFGQGTRLEIK
B8: anti-CD30L clone 61 (antibody, V domains shown)
VH: QITLKESGPTLVKPTQTLTLTCTFSGFSLSTSGVGVGWIRQPPGKALEWLALIYWNDDKRYSPSLKSRLTITKDTSKNQVVLTMTNMDPVDTATYYCAHRRTTTVTIYYYYMDVWGKGTTVTVSS
VL: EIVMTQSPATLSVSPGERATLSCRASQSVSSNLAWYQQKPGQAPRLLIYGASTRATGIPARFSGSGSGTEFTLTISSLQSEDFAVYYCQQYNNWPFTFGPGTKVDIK
B9: anti-CD30L antibody clone 1 with IgG1 constant region SEQ ID NO: 502 (antibody, V domains shown)
VH: B1 VH
VL: B1 VL
notes: copies: 2 + 2
B10: anti-CD30L antibody clone 1 germlined with IgG1 constant region SEQ ID NO: 502 (antibody, V domains shown)
VH: B1 VH with V42G, A109T
VL: B1 VL with Y10S, A22T
notes: copies: 2 + 2

Columns and labels:
[1] = target: T1, human CD30L expressed on B16 cells (human, UniProt P32971 1-234); experiment: cell-based or functional assay
T1 sequence (looked up): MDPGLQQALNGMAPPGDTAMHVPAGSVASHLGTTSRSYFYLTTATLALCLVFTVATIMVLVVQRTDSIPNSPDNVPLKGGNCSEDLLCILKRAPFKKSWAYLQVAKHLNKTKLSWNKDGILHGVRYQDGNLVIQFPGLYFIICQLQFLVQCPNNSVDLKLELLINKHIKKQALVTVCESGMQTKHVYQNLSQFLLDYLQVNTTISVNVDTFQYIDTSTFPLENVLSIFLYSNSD

[2] = target: T2, cynomolgus CD30L expressed on HEK293 cells (cynomolgus, UniProt A0A7N9CVX7 1-234); experiment: cell-based or functional assay
T2 sequence: T1 sequence (looked up) with A19T, M20T, G32E, L41F, V75I, K78R, I204V, I227V

recombinant human CD30L [3] = target: T3, recombinant human CD30L (human, UniProt P32971 63-234); experiment: ELISA, binding to purified rhCD30L
T3 construct: Purified recombinant protein of ELISA, BLI, Carterra and KinExA; also called rhCD30L; huCD30L
T3 sequence (looked up): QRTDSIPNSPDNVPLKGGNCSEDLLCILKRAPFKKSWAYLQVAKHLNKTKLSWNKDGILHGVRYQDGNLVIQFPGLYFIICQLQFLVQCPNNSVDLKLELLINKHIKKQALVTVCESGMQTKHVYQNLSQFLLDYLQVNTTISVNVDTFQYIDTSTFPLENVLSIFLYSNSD

[4] = target: T4, recombinant cynomolgus CD30L (cynomolgus, UniProt A0A7N9CVX7 63-234); experiment: ELISA, binding to purified rcyCD30L
T4 construct: Purified recombinant protein; also called rcyCD30L; cyno CD30L
T4 sequence: T3 sequence (looked up) with V13I, K16R, I142V, I165V

[5] = target: T1, human CD30L expressed on B16 cells; experiment: flow cytometry, binding to B16-rhCD30L cells
[6] = target: T2, cynomolgus CD30L expressed on HEK293 …; experiment: flow cytometry, binding to HEK293-cyCD30L cells
recombinant human CD30L [7] = target: T3, recombinant human CD30L; experiment: ELISA, blocking of CD30-Fc on huCD30L; competitor CD30-Fc
[8] = target: T4, recombinant cynomolgus CD30L; experiment: ELISA, blocking of CD30-Fc on rcyCD30L; competitor CD30-Fc
[9] = target: T1, human CD30L expressed on B16 cells; experiment: flow cytometry, blocking of CD30-Fc on B16-huCD30L cells; competitor CD30-Fc
[10] = target: T2, cynomolgus CD30L expressed on HEK293 …; experiment: flow cytometry, blocking of CD30-Fc on HEK293-cyCD30L cells; competitor CD30-Fc
recombinant human CD30L [11] = target: T3, recombinant human CD30L; experiment: ELISA on recombinant protein
[12] = target: T4, recombinant cynomolgus CD30L; experiment: ELISA on recombinant protein
recombinant mouse CD30L = target: T5, recombinant mouse CD30L (mouse, UniProt P32972 68-239); experiment: ELISA on recombinant protein
T5 construct: Purified recombinant protein; also called rmCD30L
T5 sequence (looked up): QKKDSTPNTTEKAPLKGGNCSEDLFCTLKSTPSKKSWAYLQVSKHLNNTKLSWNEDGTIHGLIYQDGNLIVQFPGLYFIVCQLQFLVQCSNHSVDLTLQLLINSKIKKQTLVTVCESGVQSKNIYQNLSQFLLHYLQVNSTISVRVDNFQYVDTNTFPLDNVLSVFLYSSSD

recombinant human CD30L [13] = target: T3, recombinant human CD30L; experiment: recombinant blocking ELISA; competitor CD30
recombinant human CD30L [14] = target: T3, recombinant human CD30L; experiment: ELISA, binding to rhCD30L (OD 450 nm)
[15] = target: T1, human CD30L expressed on B16 cells; experiment: flow cytometry on B16 cells expressing hCD30L
recombinant human CD30L [16] = target: T3, recombinant human CD30L; experiment: BLI, CD30 association to CD30L held by captured IgG; competitor rhCD30
Protocol: Briefly, individual anti-human biosensors were loaded with purified IgG (normalized to 10 μg/mL) and a baseline was measured for each biosensor. Biosensors were saturated with biotin and with polyclonal hulgG and a baseline was measured. Loaded biosensors were then allowed to bind CD30L and the association rate was measured for the binding. Biosensors were moved to buffer wells to measure the dissociation rate.

[17] = target: T1, human CD30L expressed on B16 cells; experiment: flow cytometry, binding to B16 cells expressing human CD30L (MFI)
[18] = target: T6, recombinant human CD30L protein (human, UniProt P32971 63-234); experiment: ELISA, HuCD30L
T6 construct: also called rhCD30L; huCD30L (ELISA)
T6 sequence (looked up): T3 sequence (looked up)

[19] = target: T7, human CD30L expressed on cells (human, UniProt P32971 1-234); experiment: flow cytometry, HuCD30L cells
T7 construct: also called huCD30L; B16-huCD30L
T7 sequence: T1 sequence (looked up)

CDH13 = target: T8, CDH13 (human, UniProt P55290 139-693); experiment: cell microarray, library and confirmation screens
T8 construct: whole, on cells; also called hit #16
T8 sequence (looked up): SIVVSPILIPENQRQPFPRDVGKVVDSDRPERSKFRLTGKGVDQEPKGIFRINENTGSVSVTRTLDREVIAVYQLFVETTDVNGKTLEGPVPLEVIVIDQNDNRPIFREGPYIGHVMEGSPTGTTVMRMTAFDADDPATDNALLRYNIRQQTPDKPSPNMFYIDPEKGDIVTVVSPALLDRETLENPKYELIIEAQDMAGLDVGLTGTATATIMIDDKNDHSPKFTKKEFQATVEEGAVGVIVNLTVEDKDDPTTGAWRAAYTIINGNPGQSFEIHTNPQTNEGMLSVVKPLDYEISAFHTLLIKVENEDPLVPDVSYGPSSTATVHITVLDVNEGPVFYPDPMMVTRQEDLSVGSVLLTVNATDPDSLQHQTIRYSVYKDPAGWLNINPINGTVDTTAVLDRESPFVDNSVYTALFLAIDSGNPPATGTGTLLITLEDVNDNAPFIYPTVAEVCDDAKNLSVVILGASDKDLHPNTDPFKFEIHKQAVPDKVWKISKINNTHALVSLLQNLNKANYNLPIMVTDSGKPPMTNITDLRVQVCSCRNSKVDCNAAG

Binder	rhCD30L (+) ELISA (recombinant human CD30L [11])	rcyCD30L (+) ELISA [12]	rmCD30L (+) ELISA (recombinant mouse CD30L)	IC50 (recombinant human CD30L [13])	EC50 (read off the curve) (recombinant human CD30L [14])	hCD30L B16 (+) FLOW [15]	rhCD30L:rhCD30 Blocking (recombinant human CD30L [16])	EC50 (read off the curve) [17]	OD [18]	MFI [19]	further results
B1											Inhibition of IL-8 release in a dual cell assay (B16-huCD30L cells + K299 cells) IC50 [1]: 1430 pM; Inhibition of IL-8 release in a dual cell assay (HEK293-cyCD30L cells + K299 cells) IC50 [2]: 390 pM; EC50 (recombinant human CD30L [3]): 50 pM; EC50 [4]: 70 pM; EC50 [5]: 1110 pM; EC50 [6]: 670 pM; IC50 (recombinant human CD30L [7]): 2140 pM; IC50 [8]: 1580 pM; IC50 [9]: 1060 pM; IC50 [10]: 510 pM
B2											Inhibition of IL-8 release in a dual cell assay (B16-huCD30L cells + K299 cells) IC50 [1]: 810 pM; Inhibition of IL-8 release in a dual cell assay (HEK293-cyCD30L cells + K299 cells) IC50 [2]: 310 pM; EC50 (recombinant human CD30L [3]): 40 pM; EC50 [4]: 50 pM; EC50 [5]: 740 pM; EC50 [6]: 300 pM; IC50 (recombinant human CD30L [7]): 1350 pM; IC50 [8]: 1280 pM; IC50 [9]: 790 pM; IC50 [10]: 340 pM
B3	1.87	0.724	0.046	3180 pM	~100 pM	6.07e+06	0.0592	~1000 pM			
B4	2.04	0.951	0.049	3170 pM	~100 pM	5.67e+06	0.0633	~1000 pM			
B5	1.97	1.38	0.047	3660 pM	~100 pM	6.91e+06	0.0522	~1000 pM			
B6									0.06 OD	9790 MFI	
B7									0.23 OD	1090 MFI	
B8									1.42 OD	362 MFI	
B9											binding result (CDH13): no binding (tested: 5 µg/mL)
B10											binding result (CDH13): no binding (tested: 5 µg/mL)
